Test results from article PMC11666352.

How the values were obtained:
Assay in all cases: stopped-flow fluorescence anisotropy
Conditions in all cases: T17 carries SIMA; Kd: 5 mM Tricine-KOH pH 8.0, 100 mM KCl, 3.4 mM MgCl2, 0.1 mM each dNTP, 0.01% Tween 20, 20 nM hairpin, 55 C (SYTO 13 1/5000 listed in the shared buffer)
[1] = molecular target: Taq pol D732N D732N (UniProt P19821)
[2] = molecular target: Taq pol M747E M747E (UniProt P19821)
[3] = molecular target: Taq pol E708Q-D732N E708Q;D732N (UniProt P19821)
[4] = molecular target: Taq pol E507Q-D578S-R728Q E507Q;D578S;R728Q (UniProt P19821)
[5] = molecular target: Taq pol D578K D578K (UniProt P19821)
[6] = molecular target: Taq pol D578S-R728Q-M747V D578S;R728Q;M747V (UniProt P19821)
[7] = molecular target: Taq pol S515F S515F (UniProt P19821)
[8] = molecular target: Taq pol S515N S515N (UniProt P19821)
[9] = molecular target: Taq pol D578Q-D732N D578Q;D732N (UniProt P19821)
[10] = molecular target: Taq pol R660S R660S (UniProt P19821)
[11] = molecular target: Taq pol E507Q-S515N-D578S E507Q;S515N;D578S (UniProt P19821)
[12] = molecular target: Taq pol S515D-K540M S515D;K540M (UniProt P19821)
[13] = molecular target: Taq pol E507K-D732N E507K;D732N (UniProt P19821)
[14] = molecular target: Taq pol I707L I707L (UniProt P19821)
[15] = molecular target: Taq pol R573K-D578N R573K;D578N (UniProt P19821)
[16] = molecular target: Taq pol H639F H639F (UniProt P19821)
[17] = molecular target: Taq pol R660V R660V (UniProt P19821)
[18] = molecular target: Taq pol E507D E507D (UniProt P19821)
[19] = molecular target: Taq pol E742K-A743R E742K;A743R (UniProt P19821)
[20] = molecular target: Taq pol E626K E626K (UniProt P19821)
[21] = molecular target: Taq pol E708L E708L (UniProt P19821)
[22] = molecular target: Taq pol D578H-M747Q D578H;M747Q (UniProt P19821)
[23] = molecular target: Taq pol F667I-R728N-M747S F667I;R728N;M747S (UniProt P19821)
[24] = molecular target: Taq pol WT (UniProt P19821)
[25] = molecular target: Taq pol H639Y H639Y (UniProt P19821)
[26] = molecular target: Taq pol E507K E507K (UniProt P19821)
[27] = molecular target: Taq pol E507K-D578E E507K;D578E (UniProt P19821)
[28] = molecular target: Taq pol H639A H639A (UniProt P19821)
[29] = molecular target: Taq pol V586N-M747T V586N;M747T (UniProt P19821)
[30] = molecular target: Taq pol S515N-M747S S515N;M747S (UniProt P19821)
[31] = molecular target: Taq pol D578S-R728Q-M747Q D578S;R728Q;M747Q (UniProt P19821)
[32] = molecular target: Taq pol S515D S515D (UniProt P19821)
[33] = molecular target: Taq pol F667Y F667Y (UniProt P19821)
[34] = molecular target: Taq pol F667M F667M (UniProt P19821)
[35] = molecular target: Taq pol E507R-R573K-E708Q E507R;R573K;E708Q (UniProt P19821)
[36] = molecular target: Taq pol E507K-A570G-M747Q E507K;A570G;M747Q (UniProt P19821)
[37] = molecular target: Taq pol M747D M747D (UniProt P19821)
[38] = molecular target: Taq pol M747Q M747Q (UniProt P19821)
[39] = molecular target: Taq pol E507Q E507Q (UniProt P19821)
[40] = molecular target: Taq pol D578N D578N (UniProt P19821)
[41] = molecular target: Taq pol E507K-A570T-M747Q E507K;A570T;M747Q (UniProt P19821)
[42] = molecular target: Taq pol E507Q-D578S-I614M E507Q;D578S;I614M (UniProt P19821)
[43] = molecular target: Taq pol D578W D578W (UniProt P19821)
[44] = molecular target: Taq pol D578N-V783I D578N;V783I (UniProt P19821)
[45] = molecular target: Taq pol E507K-R536K-R660V E507K;R536K;R660V (UniProt P19821)
[46] = molecular target: Taq pol E708D E708D (UniProt P19821)
[47] = molecular target: Taq pol F667A F667A (UniProt P19821)

“GCTATGCGTGAGCGCTTTTGCGCTCACGCATAGC [H-Kd hairpin]” showed a Kd [1] of 2.6 nM, a Kd [2] of 25.5 nM and a Kd [3] of 4.33 nM. The Kd [4] was 6.29 nM, the Kd [5] was 4.2 nM and the Kd [6] was 13.8 nM. It also gave a Kd [7] of 211 nM, a Kd [8] of 6.71 nM and a Kd [9] of 0.8 nM. It also gave a Kd [10] of 10.6 nM, a Kd [11] of 2.91 nM and a Kd [12] of over 200 nM. The Kd [13] was 1.69 nM, the Kd [14] was 8.54 nM and the Kd [15] was 4.33 nM. For the same sequence, the Kd [16] was 6.55 nM, the Kd [17] was 6.21 nM and the Kd [18] was 21.4 nM. It also gave a Kd [19] of 0.51 nM, a Kd [20] of 5.74 nM and a Kd [21] of 6.82 nM. The Kd [22] was 3.29 nM, the Kd [23] was 14.4 nM and the Kd [24] was 6.19 nM. The Kd [25] was 7.46 nM, the Kd [26] was 3.38 nM and the Kd [27] was 1.07 nM. It also gave a Kd [28] of 8.14 nM, a Kd [29] of 14.1 nM and a Kd [30] of 1.93 nM. For the same sequence, the Kd [31] was 10.3 nM, the Kd [32] was 80.7 nM and the Kd [33] was 11.7 nM. The Kd [34] was 8.79 nM, the Kd [35] was 0.96 nM and the Kd [36] was 5.15 nM. It also gave a Kd [37] of 29.6 nM, a Kd [38] of 4.41 nM and a Kd [39] of 4.78 nM. The Kd [40] was 4.26 nM, the Kd [41] was 1.53 nM and the Kd [42] was 1.17 nM. The Kd [43] was 4.99 nM, the Kd [44] was 2.19 nM and the Kd [45] was 0.79 nM. The Kd [46] was 4.51 nM and the Kd [47] was 11.1 nM.
